How the values were obtained:
[1] = biological target: the molecule itself; assay: non-reducing SDS-PAGE; recombinant hSSB1 proteins purified under non-reducing conditions, no reducing agent; Coomassie blue (2 μg) and anti-hSSB1 immunoblot (500 ng)
[2] = biological target: the molecule itself; assay: SEC-MALS; non-reduced (oxidized) protein, ~200-250 μg on Superose 12 10/30; 20 mM Tris pH 7, 100 mM NaCl, 1 mM EDTA, without TCEP
[3] = biological target: the molecule itself; assay: non-reducing SDS-PAGE with immunoblot; whole cell lysates of U2OS cells (2% O2) treated with 250 μM H2O2 or 30 mM KBrO3 for 30 min; loading buffer without DTT; probed for endogenous hSSB1

B1: recombinant C99S hSSB1 (natural protein, human, UniProt Q9BQ15 1-211, looked up)
chain: MTTETFVKDIKPGLKNLNLIFIVLETGRVTKTKDGHEVRTCKVADKTGSINISVWDDVGNLIQPGDIIRLTKGYASVFKGCLTLYTGRGGDLQKIGEFSMVYSEVPNFSEPNPEYSTQQAPNKAVQNDSNPSASQPTTGPSAASPASENQNGNGLSAPPGPGGGPHPPHTPSHPPSTRITRSQPNHTPAGPPGPSSNPVSNGKETRRSSKR
notes: human hSSB1 (NABP2/OBFC2B) with cysteine 99 mutated to serine; source: E. coli T7 shuffle strain, purified under non-reducing conditions
B1: binds [1].

B2: recombinant hSSB1 (hexa-histidine tagged, wild type) (natural protein, human, UniProt Q9BQ15 1-211, looked up)
chain: MTTETFVKDIKPGLKNLNLIFIVLETGRVTKTKDGHEVRTCKVADKTGSINISVWDDVGNLIQPGDIIRLTKGYASVFKGCLTLYTGRGGDLQKIGEFCMVYSEVPNFSEPNPEYSTQQAPNKAVQNDSNPSASQPTTGPSAASPASENQNGNGLSAPPGPGGGPHPPHTPSHPPSTRITRSQPNHTPAGPPGPSSNPVSNGKETRRSSKR
notes: Oxidized and reduced preparations are the same construct; also called his-hSSB1; hSSB1 WT; source: E. coli T7 shuffle strain (Δgor ΔtrxB), purified (SP sepharose, Ni-NTA, Superdex200); without reducing agents ("oxidized") or with 1 mM DTT in all buffers ("reduced")
B2 was tested, and the “stoichiometry N” value [2] was > 3 and the “stoichiometry N” value [1] was 2.

B3: human single-stranded DNA binding protein 1 (hSSB1), endogenous (natural protein, human (endogenous in U2OS), UniProt Q9BQ15 1-211, looked up)
chain: MTTETFVKDIKPGLKNLNLIFIVLETGRVTKTKDGHEVRTCKVADKTGSINISVWDDVGNLIQPGDIIRLTKGYASVFKGCLTLYTGRGGDLQKIGEFCMVYSEVPNFSEPNPEYSTQQAPNKAVQNDSNPSASQPTTGPSAASPASENQNGNGLSAPPGPGGGPHPPHTPSHPPSTRITRSQPNHTPAGPPGPSSNPVSNGKETRRSSKR
notes: also called NABP2; OBFC2B; source: endogenous, U2OS whole cell lysate
In the case of B3, the “stoichiometry N” value [3] is reported as ~4.

B4: recombinant C81S hSSB1 (natural protein, human, UniProt Q9BQ15 1-211, looked up)
chain: MTTETFVKDIKPGLKNLNLIFIVLETGRVTKTKDGHEVRTCKVADKTGSINISVWDDVGNLIQPGDIIRLTKGYASVFKGSLTLYTGRGGDLQKIGEFCMVYSEVPNFSEPNPEYSTQQAPNKAVQNDSNPSASQPTTGPSAASPASENQNGNGLSAPPGPGGGPHPPHTPSHPPSTRITRSQPNHTPAGPPGPSSNPVSNGKETRRSSKR
notes: human hSSB1 (NABP2/OBFC2B) with cysteine 81 mutated to serine; source: E. coli T7 shuffle strain, purified under non-reducing conditions
B4: binds [1].
